Laboratory results published in paper PMC9335266 (Proceedings of the National Academy of Sciences of the …, 2022).

Target: TRIM7^B30.2 (PRY-SPRY domain of human TRIM7, residues 338-511) (human, UniProt Q9C029 338-511)
Assay: ITC

B1: GN1 peptide (KRKLDTYLQ), Ct-nonapeptide of glycogenin-1 (peptide)
peptide: KRKLDTYLQ
Work on B1 yielded a Kd of 2700 nM.
